Assay results as given in paper PMC11821529.

Assays:
[1] = molecular target: Myc-tagged Rhinolophus affinis ISG15 S77C (Rhinolophus affinis); test: cross-linking
[2] = molecular target: Myc-tagged wild-type Mops condylurus ISG15 (Mops condylurus); test: cross-linking

Row | stoichiometry N [1] | stoichiometry N [2] | Substance
1 | 2 | – | Myc-tagged Rhinolophus affinis ISG15 S77C (natural protein)
2 | – | 2 | Myc-tagged wild-type Mops condylurus ISG15 (natural protein)
